This assay deals with Calmodulin (His-CaM) (UniProt P0DP23). In words: BLI; ForteBio Octet Red; increasing concentrations of ASPM IQ motif (GST-IQ) to CaM; 1:1 binding model; Kd calculated as Koff/Kon.

Regarding “GST-IQ fusion protein, ASPM 23rd IQ motif and its adjacent 16 amino acid motif, Physeter macrocephalus (domain or fragment)”, the fold increase of Kd against T. truncatus was 2.2 fold.
With “GST-IQ fusion protein, ASPM 23rd IQ motif and its adjacent 16 amino acid motif, Tursiops truncatus (domain or fragment)”, the dissociation constant Kd (usually the constant that tells how readily two partners part at equilibrium) is 17.7 nM.
